Experiment [1] deals with T1, GST:AtMS2 (Arabidopsis METHIONINE SYNTHASE 2 fused with GST) (Arabidopsis thaliana, UniProt Q9SRV5 1-765).
T1 construct: METHIONINE SYNTHASE 2 (AtMS2), Arabidopsis thaliana, At3g03780; AtMS2 cDNA cloned into pGEX-4T-1; also called AtMS2 protein fused with GST; AtMS2 in fusion with GST; source: E. coli BL21, purified (glutathione resin)
T1 sequence (looked up): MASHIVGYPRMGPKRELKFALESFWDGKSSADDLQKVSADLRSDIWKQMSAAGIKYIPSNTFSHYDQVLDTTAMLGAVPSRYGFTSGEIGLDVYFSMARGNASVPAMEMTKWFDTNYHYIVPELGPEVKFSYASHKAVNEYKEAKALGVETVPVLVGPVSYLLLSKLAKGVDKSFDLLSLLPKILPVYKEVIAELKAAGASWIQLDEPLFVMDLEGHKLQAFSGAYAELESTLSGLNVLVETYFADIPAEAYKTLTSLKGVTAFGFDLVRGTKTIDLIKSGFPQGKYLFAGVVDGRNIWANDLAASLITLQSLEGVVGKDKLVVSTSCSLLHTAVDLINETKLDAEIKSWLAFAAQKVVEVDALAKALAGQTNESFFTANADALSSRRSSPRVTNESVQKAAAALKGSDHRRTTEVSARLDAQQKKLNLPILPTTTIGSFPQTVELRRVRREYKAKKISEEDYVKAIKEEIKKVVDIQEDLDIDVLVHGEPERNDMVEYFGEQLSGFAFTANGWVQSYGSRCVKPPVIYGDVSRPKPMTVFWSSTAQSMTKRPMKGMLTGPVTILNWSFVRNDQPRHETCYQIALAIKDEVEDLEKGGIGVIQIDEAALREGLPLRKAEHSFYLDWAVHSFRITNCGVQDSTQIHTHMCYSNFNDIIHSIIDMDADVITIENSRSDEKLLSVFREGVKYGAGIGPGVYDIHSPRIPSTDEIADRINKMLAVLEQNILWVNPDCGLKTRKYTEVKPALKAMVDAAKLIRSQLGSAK
The experiment in a line: pull-down; MBP fusions or MBP immobilised on amylose resin, incubated with GST:AtMS2; 50 mM Tris-HCl pH 7.4, 200 mM NaCl, 5.0% glycerol, 1.5% Triton X-100, 10 mM NaF, 1.0 mM Na3VO4, 1.0 mM PMSF; 1.5 h at 4 °C; immunoblot with anti-GST antibody. Particulars: both partners purified.

Experiment [2] deals with T2, MBP:AtMS2 (Arabidopsis thaliana, UniProt Q9SRV5 1-765).
T2 construct: METHIONINE SYNTHASE 2 (AtMS2), Arabidopsis thaliana, At3g03780; cloned into the pMBP-c vector; source: E. coli BL21, purified (amylose resin)
T2 sequence (looked up): T1 sequence (looked up)
Description: native gel or EMSA; super shift of a Texas red-labeled WUS or WOX5 promoter probe; 20 uL binding buffer (10 mM Hepes-KOH pH 7.8, 20 mM KCl, 10 mM MgCl2, 1 mM DTT, 0.1% BSA, 5% glycerol, 0.5% Triton-X100, 20 ng/uL salmon sperm DNA), 22 °C, 30 min; 6% polyacrylamide gel. The following applies: both partners purified. (In general: Mobility shift assays separate free from complexed probe on a gel.)

B1: MBP:WOX5 (natural protein, Arabidopsis thaliana, UniProt Q8H1D2 1-182, looked up)
chain: MSFSVKGRSLRGNNNGGTGTKCGRWNPTVEQLKILTDLFRAGLRTPTTDQIQKISTELSFYGKIESKNVFYWFQNHKARERQKRRKISIDFDHHHHQPSTRDVFEISEEDCQEEEKVIETLQLFPVNSFEDSNSKVDKMRARGNNQYREYIRETTTTSFSPYSSCGAEMEHPPPLDLRLSFL
notes: WUSCHEL-RELATED HOMEOBOX 5 (WOX5), Arabidopsis thaliana, At3g11260; cloned into the pMBP-c vector; also called MBP-tagged WOX5; source: E. coli BL21, purified (amylose resin)
As for B1, the binding result in experiment [1] and in experiment [2] was “binds” each time.

B2: MBP:WOX4 (natural protein, Arabidopsis thaliana, UniProt Q6X7J9 1-251, looked up)
chain: MKVHEFSNGFSSSWDQHDSTSSLSLSCKRLRPLAPKLSGSPPSPPSSSSGVTSATFDLKNFIRPDQTGPTKFEHKRDPPHQLETHPGGTRWNPTQEQIGILEMLYKGGMRTPNAQQIEHITLQLGKYGKIEGKNVFYWFQNHKARERQKQKRNNLISLSCQSSFTTTGVFNPSVTMKTRTSSSLDIMREPMVEKEELVEENEYKRTCRSWGFENLEIENRRNKNSSTMATTFNKIIDNVTLELFPLHPEGR
notes: WUSCHEL-RELATED HOMEOBOX 4 (WOX4), Arabidopsis thaliana, At1g46480; cloned into the pMBP-c vector; also called MBP-tagged WOX4; source: E. coli BL21, purified (amylose resin)
For the molecule B2, in experiment [1], the binding result is listed as “binds”.

B3: MBP (maltose-binding protein):WUS fusion protein (natural protein, Arabidopsis thaliana, UniProt Q9SB92 1-292, looked up)
chain: MEPPQHQHHHHQADQESGNNNNNKSGSGGYTCRQTSTRWTPTTEQIKILKELYYNNAIRSPTADQIQKITARLRQFGKIEGKNVFYWFQNHKARERQKKRFNGTNMTTPSSSPNSVMMAANDHYHPLLHHHHGVPMQRPANSVNVKLNQDHHLYHHNKPYPSFNNGNLNHASSGTECGVVNASNGYMSSHVYGSMEQDCSMNYNNVGGGWANMDHHYSSAPYNFFDRAKPLFGLEGHQEEEECGGDAYLEHRRTLPLFPMHGEDHINGGSGAIWKYGQSEVRPCASLELRLN
notes: WUSCHEL (WUS), Arabidopsis thaliana, At2g17950; cloned into the pMBP-c vector; also called MBP:WUS; MBP-tagged WUS; source: E. coli BL21, purified (amylose resin)
As to B3, the binding result in experiment [1] and in experiment [2] was “binds” throughout.

The values above are taken from paper PMC11359516, “Methionine Synthase 2 Represses Stem Cell Maintenance of Arabidopsis thaliana in Response to Salt Stress” (Plants, 2024).
